Assay results from article PMC5928126 (Nature Communications, 2018).

Molecular target: the molecule itself
Test: cryo-EM structure

B1: measles virus fusion glycoprotein (F) (natural protein)
chain: QIHWGNLSKIGVVGIGSASYKVMTRSSHQSLVIKLMPNITLLNNCTRVEIAEYRRLLRTVLEPIRDALNAMTQNIRPVQSVASSRRHKRFAGVVLAGAALGVATAAQITAGIALHQSMLNSQAIDNLRASLETTNQAIEAIRQAGQEMILAVQGVQDYINNELIPSMNQLSCDLIGQKLGLKLLRYYTEILSLFGPSLRDPISAEISIQALSYALGGDINKVLEKLGYSGGDLLGILESRGIKARITHVDTESYFIVLSIAYPTLSEIKGVIVHRLEGVSYNIGSQEWYTTVPKYVATQGYLISNFDESSCTFMPEGTVCSQNALYPMSPLLQECLRGSTKSCARTLVSGSFGNRFILSQGNLIANCASILCKCYTTGTIINQDPDKILTYIAADHCPVVEVNGVTIQVGSRRYPDAVYLHRIDLGPPISLERLDVGTNLGNAIAKLEDAKELLESSDQILRSMKGLSSTSIVYILIAVCLGGLIGIPALICCCRGRCNKKGEQVGMSRPGLKPDLTGTSKSYVRSL
notes: also called MeV F; pre-fusion F
stoichiometry N: 3
